For the test, the target named is T1, a-subunit of recombinant Enterococcus hirae V-ATPase (Enterococcus hirae, UniProt P43439 1-664).
T1 construct: a-subunit of Enterococcus hirae V-ATPase (NtpI); In the map it is represented by a T. thermophilus model (PDB 5GAS) and a homology model of its C-terminal half; also called Eh a-subunit; transmembrane a-subunit; source: E. coli, expressed from pTR19-EhV-ATPase, purified as part of the whole r-EhV-ATPase (Ni-NTA, Superdex 200) in 0.05% DDM
T1 sequence (looked up): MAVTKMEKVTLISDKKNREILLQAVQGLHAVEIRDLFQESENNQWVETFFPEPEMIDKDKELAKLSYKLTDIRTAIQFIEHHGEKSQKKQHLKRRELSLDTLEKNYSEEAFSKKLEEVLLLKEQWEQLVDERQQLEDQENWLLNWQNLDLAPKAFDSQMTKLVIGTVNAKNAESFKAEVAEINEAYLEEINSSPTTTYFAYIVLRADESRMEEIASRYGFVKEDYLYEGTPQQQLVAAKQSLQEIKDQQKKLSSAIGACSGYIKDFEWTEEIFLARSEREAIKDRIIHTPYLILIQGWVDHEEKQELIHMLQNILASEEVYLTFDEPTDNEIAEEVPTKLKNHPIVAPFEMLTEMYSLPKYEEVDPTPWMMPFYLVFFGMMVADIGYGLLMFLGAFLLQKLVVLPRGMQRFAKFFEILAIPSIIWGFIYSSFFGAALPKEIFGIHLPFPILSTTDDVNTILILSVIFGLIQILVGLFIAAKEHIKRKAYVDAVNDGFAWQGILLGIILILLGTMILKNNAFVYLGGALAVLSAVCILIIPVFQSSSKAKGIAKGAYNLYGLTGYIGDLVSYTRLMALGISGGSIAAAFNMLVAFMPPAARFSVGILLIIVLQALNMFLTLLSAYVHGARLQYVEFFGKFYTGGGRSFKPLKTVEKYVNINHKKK
Put plainly: cryo-EM structure; Zernike phase plate single-particle cryo-EM of r-EhV-ATPase in 0.05% DDM, 17.3 Å; earlier atomic models and homology models fitted into the map. The note with it: both partners purified.

B1: EG complex (peripheral stalk) of recombinant Enterococcus hirae V-ATPase (complex)
chain 1: MPIDKIITQINETAQLERASFEEMKRKEIDQKFEVKKWQIEADFQKEKASKLEEIERSYRQLRNKQKMQVKQEILNAKQEVLQRLFTEATLQLENEPKEEQLALMKQMIQTLPINGTARLIPGEKSADILTPAVIAEWNEELPFELIREDFTEKAQAGLIIDDAGIQYNFLFSHLIKEIQETMSAEIAKELFD
chain 2: MARILTRIKEAEENNQKKEEQVKAELAQYEQLKNNELIDLNKEFQERLTKLMKEKEKNEEEVTEDEQHKLELILEQFRQKVLEIEKTYLEKEEEEIAKKKNLTNEIIERMKQNNGCH
notes: E-subunit of Enterococcus hirae V-ATPase (NtpE); G-subunit of Enterococcus hirae V-ATPase (NtpF); Two EG peripheral stalks stand in the whole enzyme; The models fitted into the map for EG are of T. thermophilus (PDB 3K5B, 3V6I), not of E. hirae; also called peripheral stalks; source: E. coli, expressed from pTR19-EhV-ATPase, purified as part of the whole r-EhV-ATPase (Ni-NTA, Superdex 200) in …
For the molecule B1, the binding result is given as “binds”.

The record behind these values is paper PMC6199243 (Scientific Reports, 2018).
